Results taken from patent publication US6613746.

Tests used:
[1] = target: ELAM-Rg, soluble ELAM-1-IgG1 chimera (ELAM-1 extracellular domain fused to hinge, CH2 and CH3 domains of human IgG1) (human) (UniProt P16581); experiment: inhibition of adhesion of myeloid HL60 cells to immobilized ELAM-1, fusion protein at about 50 µg/ml
[2] = target: ELAM-Rg, soluble ELAM-1-IgG1 chimera (ELAM-1 extracellular domain fused to hinge, CH2 and CH3 domains of human IgG1) (human) (UniProt P16581); experiment: inhibition of adhesion of human T lymphocytes to immobilized ELAM-1, fusion protein at about 50 µg/ml

ELAM-Rg, soluble ELAM-1-IgG1 chimera (ELAM-1 extracellular domain fused to hinge, CH2 and CH3 domains of human IgG1) (human), sequence (P16581 22-556 limits assumed, stated change not applied): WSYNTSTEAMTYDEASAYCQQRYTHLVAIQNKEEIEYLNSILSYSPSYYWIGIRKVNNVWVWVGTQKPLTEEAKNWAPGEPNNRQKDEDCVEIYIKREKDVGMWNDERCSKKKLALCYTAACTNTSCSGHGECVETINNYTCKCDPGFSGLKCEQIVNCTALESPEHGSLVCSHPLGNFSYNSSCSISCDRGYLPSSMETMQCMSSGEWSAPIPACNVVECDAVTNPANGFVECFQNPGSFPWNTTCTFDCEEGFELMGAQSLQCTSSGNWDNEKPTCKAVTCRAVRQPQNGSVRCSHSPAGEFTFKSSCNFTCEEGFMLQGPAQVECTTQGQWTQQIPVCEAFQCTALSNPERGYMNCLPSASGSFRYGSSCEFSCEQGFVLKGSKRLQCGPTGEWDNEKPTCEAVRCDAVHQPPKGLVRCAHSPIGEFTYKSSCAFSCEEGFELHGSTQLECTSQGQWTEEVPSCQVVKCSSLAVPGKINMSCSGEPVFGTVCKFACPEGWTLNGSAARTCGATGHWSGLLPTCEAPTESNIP

inhibition of adhesion [1]: > 50%
inhibition of adhesion [2]: > 50%
Substance: α1-AGP-IgG1 fusion protein (α1-AGP-Hinge-CH2-CH3) produced in COS cells (Fc fusion)
